Source: PMC9926306

Biological target: ABCA1 (mouse (endogenous in J774)) (UniProt P41233)
UniProt P41233, sequence (P41233 whole entry): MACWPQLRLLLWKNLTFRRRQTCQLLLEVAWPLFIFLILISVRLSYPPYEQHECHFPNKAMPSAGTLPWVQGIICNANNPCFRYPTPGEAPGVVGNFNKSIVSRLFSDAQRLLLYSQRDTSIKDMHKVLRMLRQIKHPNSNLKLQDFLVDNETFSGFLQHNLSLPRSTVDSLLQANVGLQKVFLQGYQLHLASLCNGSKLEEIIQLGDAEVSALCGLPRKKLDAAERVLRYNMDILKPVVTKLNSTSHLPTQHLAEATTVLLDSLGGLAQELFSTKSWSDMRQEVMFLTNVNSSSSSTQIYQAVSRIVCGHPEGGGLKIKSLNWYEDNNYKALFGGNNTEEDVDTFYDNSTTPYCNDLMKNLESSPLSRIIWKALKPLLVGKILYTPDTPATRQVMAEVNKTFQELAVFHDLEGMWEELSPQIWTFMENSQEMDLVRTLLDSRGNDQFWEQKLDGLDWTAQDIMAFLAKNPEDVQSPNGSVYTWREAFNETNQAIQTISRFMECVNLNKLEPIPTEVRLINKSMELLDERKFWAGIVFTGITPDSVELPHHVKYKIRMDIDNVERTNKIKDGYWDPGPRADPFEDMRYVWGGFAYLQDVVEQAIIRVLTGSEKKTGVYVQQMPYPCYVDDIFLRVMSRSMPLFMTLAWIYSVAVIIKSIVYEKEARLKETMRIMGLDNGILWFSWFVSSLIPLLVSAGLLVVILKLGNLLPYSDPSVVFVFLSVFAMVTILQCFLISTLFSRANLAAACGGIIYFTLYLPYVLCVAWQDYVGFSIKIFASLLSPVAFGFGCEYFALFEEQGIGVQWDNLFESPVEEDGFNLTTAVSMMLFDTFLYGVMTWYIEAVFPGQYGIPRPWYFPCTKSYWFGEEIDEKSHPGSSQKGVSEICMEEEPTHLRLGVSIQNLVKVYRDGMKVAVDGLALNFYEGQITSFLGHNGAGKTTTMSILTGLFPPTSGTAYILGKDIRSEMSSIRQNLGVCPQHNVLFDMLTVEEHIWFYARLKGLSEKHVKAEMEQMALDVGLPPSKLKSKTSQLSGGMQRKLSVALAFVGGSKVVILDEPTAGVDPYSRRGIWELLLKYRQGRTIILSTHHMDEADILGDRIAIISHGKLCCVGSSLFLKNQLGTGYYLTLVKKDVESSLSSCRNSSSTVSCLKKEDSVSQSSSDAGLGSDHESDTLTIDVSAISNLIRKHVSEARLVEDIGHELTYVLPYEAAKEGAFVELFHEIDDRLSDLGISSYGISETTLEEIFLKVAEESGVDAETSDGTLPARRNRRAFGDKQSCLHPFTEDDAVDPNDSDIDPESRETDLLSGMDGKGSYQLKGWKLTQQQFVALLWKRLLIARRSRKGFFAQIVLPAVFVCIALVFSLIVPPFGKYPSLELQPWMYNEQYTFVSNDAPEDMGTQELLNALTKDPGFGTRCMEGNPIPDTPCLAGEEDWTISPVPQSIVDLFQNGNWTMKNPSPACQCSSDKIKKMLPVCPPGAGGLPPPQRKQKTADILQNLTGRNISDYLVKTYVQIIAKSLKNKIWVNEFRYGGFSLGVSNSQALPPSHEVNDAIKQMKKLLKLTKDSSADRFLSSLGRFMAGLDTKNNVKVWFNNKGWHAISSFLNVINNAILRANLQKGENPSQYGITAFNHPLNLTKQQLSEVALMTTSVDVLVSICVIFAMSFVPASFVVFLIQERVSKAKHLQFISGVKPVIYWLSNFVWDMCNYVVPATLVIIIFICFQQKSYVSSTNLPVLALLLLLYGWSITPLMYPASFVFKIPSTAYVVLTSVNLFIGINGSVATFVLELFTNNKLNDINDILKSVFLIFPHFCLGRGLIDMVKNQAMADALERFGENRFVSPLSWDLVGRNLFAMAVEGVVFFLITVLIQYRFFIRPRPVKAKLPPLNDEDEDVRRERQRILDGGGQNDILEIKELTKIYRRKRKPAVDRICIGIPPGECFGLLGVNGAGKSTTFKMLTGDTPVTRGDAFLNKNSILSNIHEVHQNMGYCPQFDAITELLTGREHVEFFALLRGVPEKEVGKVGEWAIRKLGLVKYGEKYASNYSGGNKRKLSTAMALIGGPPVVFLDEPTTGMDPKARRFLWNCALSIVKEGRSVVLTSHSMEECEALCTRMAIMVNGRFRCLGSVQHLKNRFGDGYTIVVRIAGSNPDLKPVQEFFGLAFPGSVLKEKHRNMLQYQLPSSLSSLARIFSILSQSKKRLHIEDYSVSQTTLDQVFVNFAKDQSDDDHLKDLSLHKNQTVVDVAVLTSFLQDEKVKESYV

WT apoA-I (from UniProt P02647 19-267) (natural protein)
percent BODIPY-cholesterol efflux from J774 cells treated with cAMP (ABCA1 upregulated), apoA-I 10 ug/ml, 6 and 24 h; value after 24 h: 28.7%

apoA-I[K107del] (natural protein)
percent BODIPY-cholesterol efflux from J774 cells treated with cAMP (ABCA1 upregulated), apoA-I 10 ug/ml, 6 and 24 h; value after 24 h: 27.9%
